Experimental data taken from US20050249739A1.

Biological target: S protein of GD03T on pseudotyped HIV (SARS-CoV (GD03T isolate))
Experiment: cell-based or functional assay

Substance 80R IgG1 (antibody) has a S-protein-pseudotyped HIV luciferase infection of ACE2-expressing 293T cells greater than 50 µg/mL.
